Reference: paper PMC3816987 (Journal of molecular recognition : JMR, 2010)

T1: GST fusion protein of Tulp1-N (1M-298Q) (mouse, UniProt Q9Z273 1-298)
T1 sequence (looked up): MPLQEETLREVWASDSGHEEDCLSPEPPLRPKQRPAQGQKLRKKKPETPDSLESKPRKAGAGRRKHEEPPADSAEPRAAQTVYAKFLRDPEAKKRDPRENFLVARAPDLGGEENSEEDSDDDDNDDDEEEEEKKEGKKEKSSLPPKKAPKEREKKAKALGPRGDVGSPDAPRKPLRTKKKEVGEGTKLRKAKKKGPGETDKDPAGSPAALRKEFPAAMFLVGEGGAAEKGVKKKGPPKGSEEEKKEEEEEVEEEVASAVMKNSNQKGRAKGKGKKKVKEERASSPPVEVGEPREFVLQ

T2: GST-free tubby-N (tubby N-terminus, 1M-242P) (mouse, UniProt P50586 1-242)
T2 sequence (looked up): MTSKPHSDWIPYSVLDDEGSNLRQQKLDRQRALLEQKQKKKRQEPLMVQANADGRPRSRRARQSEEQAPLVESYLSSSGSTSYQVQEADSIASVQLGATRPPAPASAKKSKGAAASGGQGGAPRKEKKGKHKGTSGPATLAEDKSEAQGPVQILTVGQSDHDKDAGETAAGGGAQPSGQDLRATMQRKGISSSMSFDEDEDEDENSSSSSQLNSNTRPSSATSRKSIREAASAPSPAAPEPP

B1: Tubby like protein 1 (Tulp1) phage clone, 125D-243E (domain or fragment, mouse, UniProt Q9Z273 125-243, looked up)
chain: DDDEEEEEKKEGKKEKSSLPPKKAPKEREKKAKALGPRGDVGSPDAPRKPLRTKKKEVGEGTKLRKAKKKGPGETDKDPAGSPAALRKEFPAAMFLVGEGGAAEKGVKKKGPPKGSEEE
modifications: biotin on the C-terminal biotinylation tag (E. coli BirA ligase)
B2: Regulated endocrine-specific protein 18 (Resp18) phage clone, 68V-134K (domain or fragment, mouse, UniProt P47939-1 68-134, looked up)
chain: VPEGMFWADDIAYELMTKKVEHLSRLHPQYPCRKDMKAVSPTANAGVRSKQEEKLQLLSPQKSPTVK-{biotinylation tag(biotin)}
B3: Hmg. nucleosomal binding domain 2 (Hmgn2) phage clone, 1M-56K (domain or fragment)
chain: not shown
modifications: biotin on the C-terminal biotinylation tag (E. coli BirA ligase)
B4: CCCTC-binding factor (Ctcf) phage clone, 136G-400T (domain or fragment, mouse, UniProt Q61164 136-400, looked up)
chain: GAYENEVSKEGLAESEPMICHTLPLPEGFQVVKVGANGEVETLEQGELPPQEDSSWQKDPDYQPPAKKTKKTKKSKLRYTEEGKDVDVSVYDFEEEQQEGLLSEVNAEKVVGNMKPPKPTKIKKKGVKKTFQCELCSYTCPRRSNLDRHMKSHTDERPHKCHLCGRAFRTVTLLRNHLNTHTGTRPHKCPDCDMAFVTSGELVRHRRYKHTHEKPFKCSMCDYASVEVSKLKRHIRSHTGERPFQCSLCSYASRDTYKLKRHMRT
modifications: biotin on the C-terminal biotinylation tag (E. coli BirA ligase)
B5: IQ motif containing GTPase activating protein 2 (Iqgap2) phage clone, 1232E-1368E (domain or fragment, mouse, UniProt Q3UQ44 1232-1368, looked up)
chain: EKSDLLNELLESLGEVPTVESFLGEGAVDPNDPNKENTLNQLSKTEISLSLTSKYDVKDGEAVDGRSLMIKTKKLIIDVTRNQPGSTLTEILETPATGQQELEHAKDMESRAVVDSRTPEEGKQSQAVIEDARLPLE
modifications: biotin on the C-terminal biotinylation tag (E. coli BirA ligase)

Assays:
[1] = target: T1, GST fusion protein of Tulp1-N (1M-298Q); test: phage binding assay
[2] = target: T2, GST-free tubby-N (tubby N-terminus, …); test: phage binding assay

Row | Binder | binding specificity, clonal phage vs. control phage [1] [X] | binding specificity, clonal phage vs. control phage [2] [X]
1 | B1 | ~32.8 | ~49
2 | B2 |  | ~10.3
3 | B3 | ~37.8 | ~33.4
4 | B4 | ~7.7 | ~117
5 | B5 |  | ~53.2
